Earlier results as cited in PMC2797979 (Diabetes Care, 2009).

Conditions: long-acting insulin analogs

## detemir
  Elimination half-life: 24 h
